# Assay results published in paper PMC6291932.
# Target: recombinant zika virus (ZIKV) non-structural 1 (NS1) protein (Zika virus)
# Assay: SEC; Superdex 200 10/300, elution in 50 mM CAPS pH 11.0; supernatants of NS1 inclusion bodies subjected to 2.4 kbar/0.4 kbar at pH 10.0 to 12.5, with or without Arg
substance,measurement,value
recombinant zika virus (ZIKV) non-structural 1 (NS1) protein (natural protein),stoichiometry N,2
